Test results as given in the Human Domainome abundance scans (Beltran et al. 2025).

B1: Retinoic acid receptor beta, residues 85 to 161; numbered along this chain, P10826 (parent)
chain: YKPCFVCQDKSSGYHYGVSACEGCKGFFRRSIQKNMIYTCHRDKNCVINKVTRNRCQYCRLQKCFEVGMSKESVRND

Variants of: B1
Test: abundance fitness (aPCA) (normalised: wild type 0, dead -1); higher = more abundant; growth selection in yeast, the domain comes from the species named
Conditions: Homo sapiens

Abundance fitness, by site and new letter:
N54: E 0.217 | F 0.089 | T 0.185 | Q 0.183 | I 0.233 | W -0.088 | M 0.216 | D 0.345 | C -0.267 | S 0.136 | H 0.067 | R 0.036 | Y 0.112 | A 0.074 | K 0.183 | V 0.11 | G -0.007 | P -0.003
F65: H -0.253 | V -0.019 | G -0.442 | R -0.22 | T -0.02 | L 0.014 | S -0.31 | M 0.026 | W -0.174 | E -0.024 | D -0.423 | C -0.197 | Y -0.009 | A -0.291 | N -0.128 | I 0.119 | P -0.542 | Q -0.156 | K -0.081
T52: N 0.023 | R -0.745 | F -0.188 | D 0.046 | H -0.397 | M 0.02 | G -0.029 | E 0.123 | K -0.015 | W -0.047 | Q 0.027 | I -0.053 | S 0.032 | L 0.038 | C -0.451 | V -0.021
C59: T -0.499 | G -0.758 | A -0.619 | M -0.732 | I -0.494 | Q -0.983 | F -0.872 | H -0.817 | N -0.834 | W -0.823 | K -0.998 | E -0.916 | P -0.777 | L -0.84 | Y -0.831 | R -0.869 | S -0.294 | V -0.941
V51: A -0.115 | W 0.282 | I 0.073 | Y -0.003 | Q 0.076 | N -0.014 | C -0.249 | E 0.171 | P -0.218 | R -0.146 | T 0.019 | F 0.13
